These results are taken from patent EP1340979A2, “Neuropeptide receptor and uses thereof” (Pfizer Limited, priority 2002, dated 2003).

The target in test [1] is T1, receptor MRGX2 (Homo sapiens, UniProt Q96LB1).
T1 sequence (Q96LB1 1-330): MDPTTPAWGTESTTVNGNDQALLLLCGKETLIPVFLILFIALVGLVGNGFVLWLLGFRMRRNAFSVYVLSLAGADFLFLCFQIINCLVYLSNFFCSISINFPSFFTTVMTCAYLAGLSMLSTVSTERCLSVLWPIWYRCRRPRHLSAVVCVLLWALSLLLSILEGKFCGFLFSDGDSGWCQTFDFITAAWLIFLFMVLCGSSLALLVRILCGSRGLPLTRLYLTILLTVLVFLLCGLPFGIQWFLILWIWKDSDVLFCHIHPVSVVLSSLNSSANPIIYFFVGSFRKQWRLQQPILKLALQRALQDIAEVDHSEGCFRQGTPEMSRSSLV
Briefly: Functional assay measuring intracellular calcium mobilisation (FLIPR). The class given is cell-based. Further details: expressed in transfected cells; host or cells: e.g. HEK293 or CHO-K1 engineered to stably express Galpha15 / Gqi-5. The conditions noted are these: for response of the MRGX2 receptor: at a concentration of 1µM. For orientation: Calcium assays in cells follow changes in intracellular calcium, usually with a dye or a luminescent sensor.

Test [2] addresses T1, receptor MRGX2. The test is described as above. The class given is cell-based. Further details: expressed in transfected cells; host or cells: host cell line, e.g. HEK293 or CHO-K1, engineered to stably express Gα15 / Gqi-5. The following applies: Preliminary EC50 data for receptor MRGX2; transiently transfected host cells expressing Gα15 / Gqi-5, Fluo3 fluorescence. Here is the method:
5 x 10^6 cells of a suitable host cell line, chosen to express a low number of endogenous receptors (e.g. HEK293 or CHO-K1) and engineered to stably express Gα15 / Gqi-5, were transiently transfected with 7.5 µg of cDNA encoding receptor MRGX2 in a suitable mammalian cell expression vector, or vector alone, using Lipofectamine Plus® reagent (Gibco BRL) as per the manufacturer's protocol. If the cells were intended for a ligand binding assay or microphysiometry, they were incubated for 24-72 hours post transfection, and then harvested. […]
Fluorescence Imaging Plate Reader (FLIPR®) technology was employed as a means to detect activation of receptor MRGX2 by various potential GPCR agonists.
Cells were transfected as described in Example 3. […] The FLIPR® processing involved reading the fluorescence for all samples for 2 minutes; during this time the fluorescence baseline was determined for 10 seconds. The desired amount of compounds (i.e. potential GPCR agonists) was then automatically transferred to the wells and the fluorescence was continuously monitored for the remainder of the time. […]
Compounds capable of acting as agonists for the receptor were identified by them causing a transient rise in fluorescence, and therefore in intracellular calcium, in the cells.

In a further test the target is MC4 receptor (Homo sapiens, UniProt P32245). The following applies: cited from earlier work.
Chain of MC4 receptor (P32245 whole entry): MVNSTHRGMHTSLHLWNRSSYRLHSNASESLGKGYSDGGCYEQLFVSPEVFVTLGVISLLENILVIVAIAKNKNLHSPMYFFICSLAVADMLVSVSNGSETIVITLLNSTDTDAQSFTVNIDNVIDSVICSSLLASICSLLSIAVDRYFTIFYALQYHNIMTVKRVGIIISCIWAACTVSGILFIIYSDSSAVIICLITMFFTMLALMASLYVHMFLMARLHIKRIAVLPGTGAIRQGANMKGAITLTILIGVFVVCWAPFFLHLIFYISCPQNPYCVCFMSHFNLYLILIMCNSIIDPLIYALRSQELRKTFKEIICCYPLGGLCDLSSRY
For test [3] the following is noted: i.c.v. administration, free feeding rats, maximal response at 1nmol dose; cited from earlier work.
The target of another test is receptor MRGX2 (human) (UniProt Q96LB1). Briefly: cell-based or functional assay.
A further test concerns SNSR3. The conditions noted are these: SNSR3 (MRGX1); cited from earlier work.
The target of another test is five known SST receptors. The conditions noted are these: range over the five known SST receptors; cited from earlier work.
[4] abbreviates: Preliminary EC50 data for receptor MRGX2, transiently transfected host cells expressing Gα15 / Gqi-5, Fluo3 fluorescence, read-out: EC50.

Like-named read-outs stand apart in the source and are kept apart here. Where a SMILES comes first, the peptide text is derived from it. Bridges are numbered along the chain shown (N, C = ends). [ ]: non-standard residue; d: D form. The star is where a group is joined. d2Nal = N[C@H](Cc1ccc2ccccc2c1)C(=O)O; Nle = CCCC[C@H](N)C(=O)O; Ahp = NCCCCCCC(=O)O; Bn = c1ccc(C*)cc1

By EC50 is commonly meant the concentration at which the effect is half-maximal. A word on the Ki: it is a dissociation constant, usually derived from enzyme kinetics or from competition with a known ligand.

For `CC[C@H](C)[C@@H]1NC(=O)[C@H](Cc2ccc(O)cc2)NC(=O)[C@@H](N)CSSC[C@@H](C(=O)N2CCC[C@H]2C(=O)N[C@H](C(=O)NCC(N)=O)[C@@H](C)CC)NC(=O)[C@H](CC(N)=O)NC(=O)[C@H](CO)NC1=O` [(Ser^4, Ile^8)-Oxytocin] (H-CYISNCPIG-NH2; disulfide 1-6), the concentration for a half-maximal effect (EC50) at receptor MRGX2 [1] (setting [4]) stood at 7.4 µM.

Turning to `Nc1ncnc2nc[nH]c12` [Adenine], the 50% effective concentration (EC50) result on receptor MRGX2 [2] is listed as “No response”.

As to `CSCC[C@H](NC(=O)[C@@H]1CCCN1C(=O)CNC(=O)[C@H](CCCCN)NC(=O)[C@H](Cc1cnc[nH]1)NC(=O)[C@H](CO)NC(=O)[C@H](CC(C)C)NC(=O)[C@H](CCCNC(=N)N)NC(=O)[C@@H]1CCCN1C(=O)[C@H](CCCNC(=N)N)NC(=O)[C@@H](N)CCC(N)=O)C(=O)N1CCC[C@H]1C(=O)N[C@@H](Cc1ccccc1)C(=O)O` [Apelin 13], the half-maximal effective concentration (EC50) at receptor MRGX2 [1] was > 10 µM.

As to `C[C@@H](OCc1ccccc1)[C@@H]1NC(=O)[C@H](CCCCN)NC(=O)[C@@H](Cc2c[nH]c3ccccc23)NC(=O)[C@H](Cc2ccccc2)NC(=O)CCCCCCNC1=O` [Cyclosomatostatin] (cyclo([Ahp]F[dW]KT(Bn)); ring closure inferred), the EC50 at receptor MRGX2 [1] (setting [4]) stood at 1.47 µM.

With `C[C@H](N)C(=O)NCC(=O)N[C@H]1CSSC[C@@H](C(=O)O)NC(=O)[C@H](CO)NC(=O)[C@H]([C@@H](C)O)NC(=O)[C@H](Cc2ccccc2)NC(=O)[C@H]([C@@H](C)O)NC(=O)[C@H](CCCCN)NC(=O)[C@@H](Cc2c[nH]c3ccccc23)NC(=O)[C@H](Cc2ccccc2)NC(=O)[C@H](Cc2ccccc2)NC(=O)[C@H](CC(N)=O)NC(=O)[C@H](CCCCN)NC1=O` [D-Trp-Somatostatin], at receptor MRGX2 [1] (setting [4]), the EC50 was 0.179 µM.

`CCCC[C@@H]1NC(=O)[C@@H](NC(C)=O)CSSC[C@@H](C(N)=O)NC(=O)CNC(=O)[C@H](Cc2c[nH]c3ccccc23)NC(=O)[C@H](CCCNC(=N)N)NC(=O)[C@@H](Cc2ccc3ccccc3c2)NC(=O)[C@H](Cc2c[nH]cn2)NC(=O)[C@H](CCCNC(=N)N)NC1=O` [HS024, (Acetyl-Cys^3,Nle^4,Arg^5,D-2-Nal^7,Cys^11)-a-MSH (3-11) amide] (Ac-C[Nle]RH[d2Nal]RWGC-NH2; disulfide 1-9 (inferred)): the Ki at MC4 receptor was 0.00029 µM. The food intake entry in test [3] is listed as “dose dependant increase in food intake”.

With `CC(C)C[C@H](NC(=O)[C@H](CC(N)=O)NC(=O)[C@@H]1CCCN1C(=O)[C@@H](N)C(C)C)C(=O)N1CCC[C@H]1C(=O)N[C@@H](CCC(N)=O)C(=O)N[C@@H](CCCNC(=N)N)C(=O)N[C@@H](Cc1ccccc1)C(N)=O` [NPVF], the concentration for a half-maximal effect (EC50) on receptor MRGX2 [1] (setting [4]) was > 10 µM.

Turning to `CC[C@H](C)[C@@H]1NC(=O)[C@H](Cc2ccc(O)cc2)NC(=O)[C@@H](N)CSSC[C@@H](C(=O)N2CCC[C@H]2C(=O)N[C@@H](CC(C)C)C(=O)NCC(N)=O)NC(=O)[C@H](CC(N)=O)NC(=O)[C@H](CCC(N)=O)NC1=O` [Oxytocin], the concentration for a half-maximal effect (EC50) at receptor MRGX2 [1] (setting [4]) was 1.47 µM.

Take `CC(C)[C@@H]1NC(=O)[C@H](CCCCN)NC(=O)[C@@H](Cc2c[nH]c3ccccc23)NC(=O)[C@H](Cc2ccc(O)cc2)NC(=O)[C@@H](NC(=O)[C@H](N)Cc2ccc3ccccc3c2)CSSC[C@@H](C(=O)N[C@H](C(N)=O)[C@@H](C)O)NC1=O` [Peptide N9642, β-(2-Naphthyl)-D-Ala-Cys-Tyr-D-Trp-Lys-Val-Cys-Thr amide [Disulfide Bridge: 2-7]]: the concentration giving a half-maximal response (EC50) at receptor MRGX2 [1] (setting [4]) worked out at 0.251 µM.

With “(Deamino-Cysl,D-Orn^8) Vasopressin (from UniProt P01185 20-28) (peptide)”, the EC50 (µM), intracellular calcium mobilisation (FLIPR) in the test with receptor MRGX2 (human) was > 10 µM.

Turning to “(Ser^4, Ile^8)-Oxytocin (from UniProt P01178 20-28) (peptide)”, the EC50 (µM), intracellular calcium mobilisation (FLIPR) with receptor MRGX2 (human) was 7.4 µM.

Consider “Apelin 13 (from UniProt Q9ULZ1 65-77) (peptide)”, for which, in the test with receptor MRGX2 (human), the EC50 (µM), intracellular calcium mobilisation (FLIPR) is > 10 µM.

In the case of “BAM 13-22 (from UniProt P01211 37-46) (peptide)”, in the test with receptor MRGX2 (human), the EC50 (µM), intracellular calcium mobilisation (FLIPR) is 0.1 µM.

Consider “Bovine adrenal medulla peptide 22 [BAM 22]”, for which, in the test with SNSR3, the EC50 was 0.013 µM.

As for “Cortistatin (PCKNFFWKTFSSCK) [CST, cyclic peptide derived from a prepropeptide of 114 residues in man]”, the EC50 on five known SST receptors is 0.00025 to 0.0009 µM.

With Cyclosomatostatin (peptide), the EC50 (µM), intracellular calcium mobilisation (FLIPR) with receptor MRGX2 (human) was determined as 1.47 µM.

As to “D-Trp-Somatostatin (from UniProt P61278 103-116) (peptide)”, the EC50 (µM), intracellular calcium mobilisation (FLIPR) in the test with receptor MRGX2 (human) was determined as 0.179 µM.

For the compound “Dynorphin A (from UniProt P01213 207-219) (peptide)”, the EC50 (µM), intracellular calcium mobilisation (FLIPR) in the test with receptor MRGX2 (human) came to 1.85 µM.

For the compound HS014 (peptide), in the test with receptor MRGX2 (human), the EC50 (µM), intracellular calcium mobilisation (FLIPR) is > 10 µM.

With “HS024 (Acetyl-Cys^3,Nle^4,Arg^5,D-2-Nal^7,Cys^11)-α-MSH (3-11) amide (from UniProt P01189 140-148) (peptide)”, the EC50 (µM), intracellular calcium mobilisation (FLIPR) in the test with receptor MRGX2 (human) was determined as 0.42 µM.

Hexarelin (peptide): the EC50 (µM), intracellular calcium mobilisation (FLIPR) in the test with receptor MRGX2 (human) turned out to be 9.5 µM.

As for “N9642 (β-(2-Naphthyl)-D-Ala-Cys-Tyr-D-Trp-Lys-Val-Cys-Thr amide [Disulfide Bridge: 2-7] (sst2R agonist)) (peptide)”, the EC50 (µM), intracellular calcium mobilisation (FLIPR) in the test with receptor MRGX2 (human) is 0.251 µM.

On to “NPAF (from UniProt O15130 93-110) (peptide)”, for which the EC50 (µM), intracellular calcium mobilisation (FLIPR) in the test with receptor MRGX2 (human) is > 10 µM.

Take NPSF (peptide): the EC50 (µM), intracellular calcium mobilisation (FLIPR) with receptor MRGX2 (human) was > 10 µM.

As to “NPVF (from UniProt Q9HCQ7 124-131) (peptide)”, the EC50 (µM), intracellular calcium mobilisation (FLIPR) with receptor MRGX2 (human) was > 10 µM.

In the case of “Nociceptin (from UniProt Q13519 130-146) (peptide)”, the EC50 (µM), intracellular calcium mobilisation (FLIPR) in the test with receptor MRGX2 (human) is > 10 µM.

For the compound Octreotide (peptide), in the test with receptor MRGX2 (human), the EC50 (µM), intracellular calcium mobilisation (FLIPR) was > 10 µM.

For “Oxytocin (from UniProt P01178 20-28) (peptide)”, in the test with receptor MRGX2 (human), the EC50 (µM), intracellular calcium mobilisation (FLIPR) stood at 1.47 µM.

With “Somatostatin 14 (from UniProt P61278 89-116) (peptide)”, the EC50 (µM), intracellular calcium mobilisation (FLIPR) in the test with receptor MRGX2 (human) worked out at 0.78 µM.

As for α-MSH, in the test with receptor MRGX2 [1], the “response of the MRGX2 receptor” value is on record as “responds”.

Take γ-MSH: the “response of the MRGX2 receptor” value with receptor MRGX2 [1] is recorded as “responds”.
